What all share (assay): purified protein
Holding throughout (conditions): 25°C, 50 mM Tris-HCl pH 8.0, 10 mM MgCl2

Data set [1] concerns C[N+]1(C)C[C@H](O)C[C@H]1C(=O)[O-].
The subject of data set [2] is C[N+]1(C)CCC[C@@H]1C(=O)[O-]. In kind it is biochemical, Cereibacter sphaeroides.
In data set [3] the test system is C[N+]1(C)CCC[C@@H]1C(=O)[O-].

By Km is commonly meant the concentration of substrate that gives half-maximal velocity. A word on the kcat: it is the number of substrate molecules converted per active site and unit of time at saturation. As a reminder, the kcat/Km is the turnover number divided by the Michaelis constant. Take rsHpbD (Cereibacter sphaeroides 2.4.1): in data set [1], the Km was found to be 16 ± 7 mM, the kcat worked out at 70 ± 7 s⁻¹ and the specificity constant (kcat/Km) is 4300 M⁻¹ s⁻¹. Also, in data set [2], the Km was determined as 11 ± 4 mM, the kcat came out at 4.3 ± 0.6 s⁻¹ and the kcat/Km came out at 390 M⁻¹ s⁻¹.

For the substance “pdHpbD (Paracoccus denitrificans PD1222)”, in data set [3], the Km amounted to 7.3 ± 3 mM, the kcat stood at 28 ± 6 s⁻¹ and the kcat/Km came to 3800 M⁻¹ s⁻¹.

These data come from PMC3950512.
